Where no end group is shown, it is not given here. [ ]: non-standard residue; d: D form. pY = N[C@@H](Cc1ccc(OP(=O)(O)O)cc1)C(=O)O

The Kd is the concentration at which binding is half-saturated. A higher Kd goes with lower affinity.

Common to all, as to test: SPR
Assay [1] concerns the target M. musculus LNK SH2 domain R387H (mouse, UniProt O09039 325-438, R387H).
The target in assay [2] is M. musculus LNK SH2 domain (residues 324–446), wild type (mouse, UniProt O09039 324-446).
In assay [3] the target is M. musculus LNK SH2 domain R387C (mouse, UniProt O09039 325-438, R387C).
Chain of M. musculus LNK SH2 domain R387C (O09039 325-438 R387C): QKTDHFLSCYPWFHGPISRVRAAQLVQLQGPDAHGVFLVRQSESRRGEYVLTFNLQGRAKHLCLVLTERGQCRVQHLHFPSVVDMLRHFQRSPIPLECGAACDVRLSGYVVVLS
For the next assay, the target named is mouse SH2B SH2 domain (mouse, UniProt Q91ZM2 527-625).

Chain of M. musculus LNK SH2 domain (residues 324–446), wild type (O09039 324-446): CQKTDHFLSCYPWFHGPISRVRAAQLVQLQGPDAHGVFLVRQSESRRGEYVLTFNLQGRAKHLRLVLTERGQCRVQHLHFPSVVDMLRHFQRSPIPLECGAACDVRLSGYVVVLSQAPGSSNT
Chain of M. musculus LNK SH2 domain R387H (O09039 325-438 R387H): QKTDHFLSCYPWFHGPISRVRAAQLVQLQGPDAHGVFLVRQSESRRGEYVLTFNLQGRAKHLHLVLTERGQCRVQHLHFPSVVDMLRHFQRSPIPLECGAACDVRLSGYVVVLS

As for FTPD[pY]ELLTEND (also: biotin, site not given here) [biotinylated JAK2 pY813 peptide], the Kd was 242 nM in assay [1], 27 nM in assay [2], 76 nM in assay [3] and 108 nM with mouse SH2B SH2 domain.

Source of the values: PMC8528861 (2021).
